The supplement of paper PMC12042874
± gives the uncertainty stated by the source.

Test: amyloid nucleation score (Sup35N fusion, yeast selection) (log enrichment); library NNK1; higher = more nucleation; inactive = no reads after selection
Summary of the method: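 After 24 hours of induction with 100 μM copper sulfate, psi-negative yeast expressing peptides of 20 random codons fused to Sup35N were grown for 7 days at 30°C on medium lacking adenine and uracil. Input and output plasmid inserts were sequenced with Illumina, and sequences with under 100 input reads were discarded. Scores for nucleation are the DiMSum log enrichment of output over input reads, centred on the mode score of non-aggregating sequences.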

Substance | amyloid nucleation score
TSDFVVPM | 0.691 ± 0.41
TSDNFCQCHCSFFQSWFGG | -0.27 ± 0.63
TSDRVVPFGSISWKGCSRVR | -0.981 ± 0.85
TSENLNSASNLSSYVADMPI | 0.273 ± 0.35
TSFLV | -0.028 ± 0.91
TSGSGINITL | inactive
TSKDEFKFEYRNEKVNQ | 1.75 ± 0.21
TSPDCKAAKSQGSKCRDRSC | -0.495 ± 0.62
TSPYDSNGLFAMLAELHFYS | 0.082 ± 0.78
TSRFSFCGS | 1.85 ± 0.14
TSSVEVNPERVITISGTVS | -0.018 ± 0.17
TSVLLQHGLWIGS | 0.685 ± 0.34
TSWRAWVGAVKRSAFFYTYY | 0.444 ± 1.4
TSWVEAPSVSSFGWFLSVHL | 1.91 ± 0.12
TTCCINSLMCTDTNSCIAGV | 2.08 ± 0.6
TTCLTQNLDQGSLLYKVLPR | 1.43 ± 0.18
TTDPVWFSAI | 0.346 ± 0.4
TTDSVDDTRKYAYGFIACGV | 0.114 ± 0.47
TTFGRPSTPH | -0.393 ± 0.38
TTLKGCSIY | 0.934 ± 0.41
TTLVQCQFIPTFCVIPMWLL | 5.58 ± 0.058
TTPEAFNSLFAIRGGLLPQR | -0.415 ± 0.47

Substance | amyloid nucleation score
TTRHSNQSIM | 0.344 ± 0.4
TTWER | 0.496 ± 1.2
TTYYRFNVDKTFSAVISAEF | -1.02 ± 2.4
TVFIKLKVFAMN | 1.53 ± 0.18
TVFWRYCSRVLNDKFGQFWV | 0.043 ± 0.35
TVGMRYFVWVKGSKTKREER | 0.674 ± 1.2
TVISV | -1.47 ± 0.5
TVRGCRCLAFPWFNG | 0.5 ± 0.48
TVSIPKPILFCEFYFRYADM | -1.67 ± 0.73
TVSMDVLYMIGGCLLCVV | 0.209 ± 0.41
TVVIDSFLCRLQNGVDLGS | inactive
TVVYDWFG | -0.078 ± 0.75
TVWTGQRRMRVSTGCLWSGG | inactive
TVWYITTLAGEFAA | 1.09 ± 0.53
TVWYYSHPS | 0.34 ± 0.48
TVYGGLWAFSKTICCVSPKR | 7.228 ± 0.056
TVYMGTLCHYYSGIRLGSIL | 0.458 ± 0.4
TVYSLYVIDALGFLCTNVML | 0.349 ± 0.62
TWAHMQYDVWPDPTAEKDQV | 0.158 ± 0.34
TWARRFYATRVTTCLNQRVL | 0.416 ± 0.81
TWMNASCKSCTYAARFSDQK | 1.51 ± 0.56
TWQSLHGTVTRPRAIVFRLC | 0.027 ± 0.66

Substance | amyloid nucleation score
TWRCQLIYTCGNVSRKPVLL | -0.148 ± 0.5
TWSLLNIVYMSN | 0.867 ± 0.39
TWSSGRETSCVLFWVQVSKL | -0.101 ± 0.33
TWVVTHPPTM | 0.359 ± 0.55
TYLRPWPFTVLLIWRRYSCL | 0.244 ± 0.81
TYPMATIIVALG | -0.681 ± 0.38
TYPYMCNHFLVLELNVIVAL | 0.363 ± 0.58
TYPYRPLHSPFTNRFLSPNG | -0.926 ± 0.73
TYRCR | 0.624 ± 0.53
VADCPCLGLVNTLAETMNVC | 0.243 ± 0.6
VAFLTKNCYEFDDTVRTCAV | -0.569 ± 0.42
VAGWRPFILLGGPRLNTVRQ | 0.407 ± 0.67
VAKVLKSSCGRYG | -0.573 ± 0.44
VANFET | -0.769 ± 1.1
VANQNHLSCDIMSSARCERH | 0.244 ± 0.65
VAQLFHWADLYNTSYYVSCV | 3.38 ± 0.089
VASTTSGRHWSLRGHKRFGR | 1.28 ± 0.72
VATCWRYSGMSARLLSGSLN | 0.516 ± 0.4
VAYSVI | 1.02 ± 0.66
VCITNNELVGVFDDEVFIAF | inactive
